{"source": "paper PMC6144507", "about": "(Molecular Pain, 2018)", "molecular_target": "His-nNOS(1-299) (UniProt P29475-1 1-299)", "sequence (P29475 1-299)": "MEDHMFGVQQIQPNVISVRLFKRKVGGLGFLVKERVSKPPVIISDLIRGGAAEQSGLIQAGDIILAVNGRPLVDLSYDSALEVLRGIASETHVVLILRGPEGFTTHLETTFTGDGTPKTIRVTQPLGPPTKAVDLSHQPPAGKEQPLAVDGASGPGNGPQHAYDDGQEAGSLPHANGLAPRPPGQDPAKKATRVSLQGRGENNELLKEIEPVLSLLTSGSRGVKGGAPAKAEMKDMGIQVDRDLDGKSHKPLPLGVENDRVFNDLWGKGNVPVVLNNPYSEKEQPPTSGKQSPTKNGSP", "test": "AlphaScreen or HTRF", "data": [{"binder": "GRKKRRQRRRYAGQWGESV", "note": "[L-TAT-GESV]", "values": [{"measurement": "IC50", "value": 4.9, "unit": "µM"}]}]}
